Experimental data: the RNAGym collection of RNA variant scans (doi:10.1073/pnas.2313332121)

B1: TPR t1 (parent)
chain: GACCAAUCUGCCCUCAGAGCUCGAGAACAUCUUCGGAUGCAGAGGAGGCAGGCUUCGGUGGCGCGAUAGCGCCAACGUCCUCAACCUCCAAUGCAUCCCACCACAUGAUGAUGCCUGAAGAGCCUUGGUUUUUUG

Variants of: B1
Test: polymerase ribozyme fitness, log enrichment relative to wild type (log ratio); higher = more active; in vitro selection for triplet polymerase activity
Outline: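 For each subunit of a heterodimeric triplet polymerase ribozyme, a mutant library was built by PCR and transcribed, then taken through a single in vitro selection round in triplicate. Selection involved annealing to a biotinylated primer, the partner subunit and triplets, incubation frozen at −7 °C, gel excision of extended constructs, capture on streptavidin beads and RT-PCR. Genotypes were retained after Illumina sequencing of inputs and outputs only with ≥10 input reads and ≥1 read in each output. Fitness is defined as the logarithm of a genotype's enrichment relative to wild-type enrichment, using inverse-variance-weighted averages across replicates, with the logarithm taken to base 2.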

Variant | polymerase ribozyme fitness (log ratio)
C8A A84U C102A | -1.91
C8A G47A C49G C70A U78C | -3.7
C8A C79U | 0.419
C8A C22U U129G | -4.85
U7G C76U | 0.285
C8A C64U C104A G120A | 0.21
C8A C62A | -0.709
C8A A37C U78G A100C C101A U106G | -5.27
U7G C13G C40U | 0.145
C8A A18C | -1.93
C8A A43C | -1.76
C8A C72U A84C | 0.272
C8A C11G U54C U106A | 0.24
C8A C56U A83U G93A | 0.0132
C8A A50C U92C | -1.6
U7G G42A G71A | -2.58
U7G C53U C88G C104U G113C U130G | -2.37
C8A A41U G57A C104A | -5.75
C8A A37G C62G C99U G122A | -6.04
C8A C20G G61A | -4.4
U7G C28A G57U G110C | -1.2

Variant | polymerase ribozyme fitness (log ratio)
U7G G10U C15A U54A C104A | -3.26
U7G C124U | 1.55
U7G U38C G45U C97U U133G | -2.84
C8A G45U C56U C73U A84C A95U | -1.85
C8A G35C G63A C98A | -6.69
U7G G10A C15G G17A A43C C53G C97U | -4.35
U7G G45C G135U | -0.606
U7G C79A C99U | -5.33
U7G G36U C80U U92G C123U | -4.24
U7G C70A A100U | -2.41
C8A C34G G117C | -6.88
C8A A68G C114A | -4.66
U7G G117C | -1.81
U7G U14G C34G C72U | -5.84
C8A G42A G60U A121C | -0.202
U7G G35C U130G | -4.31
C8A A43C A46U C86U U96A | -3.85
U7G G120U | 0.729
U7G A68U | -6.53
C8A C22U G61A U129G | -4.98
U7G C12U A37G A43G G61A A91C | -0.427

Variant | polymerase ribozyme fitness (log ratio)
U7G G17C G44C G77U C94A | -6
U7G U116G | -1.53
C8A C104U | 0.701
C8A C40U C62A A90C | -3.39
U7G G10A G45U U96G G117U | -2.43
C8A C13A C49G C124G | 1.1
C8A G35A C123A | -1.9
U7G C40G A50U | -0.282
C8A C40G C88A A111C | -1.02
U7G G63C A91U | -2.27
U7G C12A G36U G77U | -0.735
U7G G10C C72G C82A | -0.707
U7G G77C C97U U109A | -6.1
C8A C20U G60A C88A | -1.93
C8A C40U A90C | -0.703
U7G C12G C49A G69U | 1.21
U7G C70U C86U U92A | -3.6
C8A C12G C64U G110U | -0.685
U7G C22G G47C G60U A84U | -5.01
C8A A91G | -0.00436
C8A C15G C40A U54G A90G | -2.34

Variant | polymerase ribozyme fitness (log ratio)
C8A C28G | -2.05
U7G C20U C115U | -2.32
C8A A18G C115A | -4.82
C8A A16C G47A C70U G110A U131A | -3.91
C8A A18C C34G A43U | -7.06
C8A A24G C28A A84C A121U | -3.25
U7G C20A G39A C49G A121G | -2.45
U7C U21C G61U A83G G120A | -0.41
C8A A27C C28U | -4.62
U7G A41U U59G C73U A121C | 0.0183
U7G G19U G42A G61A | -2.64
C8A C70U | -0.452
C8A C13A A27G | -4.58
U7G G63A C98A | -6.38
C8A C104A A105C C124G U126G | -3.52
C8A A24U G25U A43G C70G A105C U112G | -7.66
U7G G93U G113A | -1.85
U7G G48U U59C C86G | -1.39
U7G C13A A37C G52A G69U U92A A105U | -4.57
U7G A50U G117C | -3.6
U7G A74G | -0.0909
